What was measured:
human ROR1 protein [1] = biological target: T1, human ROR1 protein (human, UniProt Q01973 30-403, limits assumed); assay: SPR (Biacore 8K); human ROR1 amine-coupled at 0.50 ug/mL as ligand, antibody as analyte
T1 construct: Recombinant antigen of the SPR assay; also called ROR1 (SPR ligand)

[2] = biological target: T2, human ROR1 (on CHO-K1/ROR1 cells and ROR1 tumour cell lines) (human, UniProt Q01973 30-937); assay: flow cytometry on CHO-K1/ROR1 cells overexpressing human ROR1
T2 construct: whole, on cells; also called receptor tyrosine kinase-like orphan receptor 1
T2 sequence (Q01973 30-937): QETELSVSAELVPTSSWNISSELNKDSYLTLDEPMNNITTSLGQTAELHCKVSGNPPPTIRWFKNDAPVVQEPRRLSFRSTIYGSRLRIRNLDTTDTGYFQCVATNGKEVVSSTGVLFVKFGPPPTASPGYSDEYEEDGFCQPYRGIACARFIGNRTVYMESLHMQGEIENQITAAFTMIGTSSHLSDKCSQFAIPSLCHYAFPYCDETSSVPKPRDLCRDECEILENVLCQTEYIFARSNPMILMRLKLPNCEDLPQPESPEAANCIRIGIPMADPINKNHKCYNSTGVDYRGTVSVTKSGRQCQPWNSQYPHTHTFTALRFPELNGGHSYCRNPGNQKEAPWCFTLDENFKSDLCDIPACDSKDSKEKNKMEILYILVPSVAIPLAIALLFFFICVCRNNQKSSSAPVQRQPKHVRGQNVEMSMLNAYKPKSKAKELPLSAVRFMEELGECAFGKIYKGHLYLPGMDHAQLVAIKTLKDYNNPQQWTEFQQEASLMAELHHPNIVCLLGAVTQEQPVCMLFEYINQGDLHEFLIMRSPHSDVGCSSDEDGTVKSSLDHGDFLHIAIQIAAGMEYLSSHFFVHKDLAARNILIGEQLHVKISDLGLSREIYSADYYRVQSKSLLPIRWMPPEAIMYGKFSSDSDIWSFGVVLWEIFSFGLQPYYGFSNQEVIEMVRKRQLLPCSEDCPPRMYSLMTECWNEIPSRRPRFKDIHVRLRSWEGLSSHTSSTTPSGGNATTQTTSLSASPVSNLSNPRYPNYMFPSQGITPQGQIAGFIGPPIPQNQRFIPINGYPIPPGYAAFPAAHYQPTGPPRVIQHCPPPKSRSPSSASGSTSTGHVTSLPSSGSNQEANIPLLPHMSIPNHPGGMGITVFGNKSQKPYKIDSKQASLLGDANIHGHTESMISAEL

[3] = biological target: T2, human ROR1 (on CHO-K1/ROR1 cells and …); assay: flow cytometry on A375 cells (human ROR1 tumour cell line)
human ROR1 protein [4] = biological target: T1, human ROR1 protein; assay: SPR (Biacore 8K); human ROR1 amine-coupled at 0.10 ug/mL as ligand, antibody as analyte
[5] = biological target: T3, human CD3 (on Jurkat cells) (human, UniProt P07766 23-207; P09693 23-182; P04234 22-171); assay: flow cytometry on Jurkat cells expressing human CD3
T3 construct: whole, on cells
T3 sequence (P07766 23-207, chain 1 of 3): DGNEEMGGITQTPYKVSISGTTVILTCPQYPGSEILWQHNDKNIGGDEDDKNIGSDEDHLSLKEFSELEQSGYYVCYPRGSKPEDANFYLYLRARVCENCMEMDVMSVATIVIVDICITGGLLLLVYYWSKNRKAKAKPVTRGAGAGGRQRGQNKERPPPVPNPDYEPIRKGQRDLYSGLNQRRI
T3 sequence (P09693 23-182, chain 2 of 3): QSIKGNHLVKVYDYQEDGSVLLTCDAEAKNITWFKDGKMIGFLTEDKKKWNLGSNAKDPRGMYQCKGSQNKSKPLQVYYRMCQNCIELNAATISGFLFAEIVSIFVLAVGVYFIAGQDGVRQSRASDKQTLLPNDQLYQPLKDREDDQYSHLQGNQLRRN
T3 sequence (P04234 22-171, chain 3 of 3): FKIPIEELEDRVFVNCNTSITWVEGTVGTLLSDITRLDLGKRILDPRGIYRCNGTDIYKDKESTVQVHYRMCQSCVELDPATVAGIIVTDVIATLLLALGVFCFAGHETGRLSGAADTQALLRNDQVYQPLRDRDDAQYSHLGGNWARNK

[6] = biological target: T2, human ROR1 (on CHO-K1/ROR1 cells and …); assay: flow cytometry on Jeko-1 cells (human ROR1 tumour cell line)
human ROR1 protein [7] = biological target: T1, human ROR1 protein; assay: SPR (Biacore 8K); human ROR1 amine-coupled at 0.05 ug/mL as ligand, antibody as analyte
[8] = biological target: T2, human ROR1 (on CHO-K1/ROR1 cells and …); assay: cell-based or functional assay
human ROR1 protein [9] = biological target: T1, human ROR1 protein; assay: SPR (Biacore 8K); human ROR1 amine-coupled at 2.50 ug/mL as ligand, antibody as analyte
human ROR1 protein [10] = biological target: T1, human ROR1 protein; assay: SPR (Biacore 8K); human ROR1 amine-coupled at 62.50 ug/mL as ligand, antibody as analyte
[11] = biological target: T2, human ROR1 (on CHO-K1/ROR1 cells and …); assay: flow cytometry on PSN-1 cells (human ROR1 tumour cell line)
[12] = biological target: T2, human ROR1 (on CHO-K1/ROR1 cells and …); assay: flow cytometry on PA-1 cells (human ROR1 tumour cell line)
[13] = biological target: T2, human ROR1 (on CHO-K1/ROR1 cells and …); assay: flow cytometry on A549 cells (human ROR1 tumour cell line)
[14] = biological target: T2, human ROR1 (on CHO-K1/ROR1 cells and …); assay: flow cytometry on MDA-MB-231 cells (human ROR1 tumour cell line)
human ROR1 protein [15] = biological target: T1, human ROR1 protein; assay: SPR (Biacore 8K); human ROR1 amine-coupled at 12.50 ug/mL as ligand, antibody as analyte

T1 sequence (Q01973 30-403 limits assumed): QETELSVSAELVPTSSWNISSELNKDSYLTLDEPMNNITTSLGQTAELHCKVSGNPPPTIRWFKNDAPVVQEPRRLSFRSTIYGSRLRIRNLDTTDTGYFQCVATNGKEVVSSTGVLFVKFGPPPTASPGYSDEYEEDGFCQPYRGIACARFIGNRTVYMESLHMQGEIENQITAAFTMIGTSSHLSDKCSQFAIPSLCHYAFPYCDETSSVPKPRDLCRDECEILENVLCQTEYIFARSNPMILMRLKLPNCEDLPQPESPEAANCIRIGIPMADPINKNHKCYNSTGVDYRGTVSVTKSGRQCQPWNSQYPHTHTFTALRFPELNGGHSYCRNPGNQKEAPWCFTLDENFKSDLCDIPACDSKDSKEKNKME

B1: BsAb-12 (bispecific antibody, human IgG1, lambda)
chain: EVQLVESGGGLVQPGGSLRLSCAASGRSFSSFQMGWFRQAPGKEREFVAASGWSGGPTYYWDSVIGRFTISTDNSKNTLYLQMNSLRAEDTAVYYCYEDRVLSGRPVRYWGQGTLVTVSSDKTHTCPPCPAPESTRGPSVFLFPPKPKDTLMISRTPEVTCVVVDVSHEDPEVKFNWYVDGVEVHNAKTKPREEQYNSTYRVVSVLTVLHQDWLNGKEYKCKVSNKALPAPIEKTISKAKGQPREPQVCTLPPSRDELTKNQVSLSCAVKGFYPSDIAVEWESNGQPENNYKTTPPVLDSDGSFFLVSKLTVDKSRWQQGNVFSCSVMHEALHNHYTQKSLSLSPGK
heavy: EVQLVESGGGLVQPGGSLRLSCAASGRSFSSFQMGWFRQAPGKEREFVAASGWSGGPTYYWDSVIGRFTISTDNSKNTLYLQMNSLRAEDTAVYYCYEDRVLSGRPVRYWGQGTLVTVSSGGGGSGGGGSGGGGSEVQLVESGGGLVQPGRSLRLSCAASGFTFNTYAMNWVRQAPGKGLEWVARIRSKYNNYATYYADSVKDRFTISRDDSKSIAYLQMNSLKTEDTAVYYCVRHGNFGNSYVSWFAYWGQGTLVTVSSASTKGPSVFPLAPSSKSTSGGTAALGCLVKDYFPEPVTVSWNSGALTSGVHTFPAVLQSSGLYSLSSVVTVPSSSLGTQTYICNVNHKPSNTKVDKKVEPKSCDKTHTCPPCPAPESTRGPSVFLFPPKPKDTLMISRTPEVTCVVVDVSHEDPEVKFNWYVDGVEVHNAKTKPREEQYNSTYRVVSVLTVLHQDWLNGKEYKCKVSNKALPAPIEKTISKAKGQPREPQVYTLPPCRDELTKNQVSLWCLVKGFYPSDIAVEWESNGQPENNYKTTPPVLDSDGSFFLYSKLTVDKSRWQQGNVFSCSVMHEALHNHYTQKSLSLSPGK
light: QTVVTQEPSLTVSPGGTVTLTCRSSTGAVTTSNYANWVQQKPGQAPRGLIGGTNKRAPGVPARFSGSLLGGKAALTLSGVQPEDEAEYFCALWYSNLWVFGGGTKLTVLGQPKAAPSVTLFPPSSEELQANKATLVCLISDFYPGAVTVAWKADSSPVKAGVETTTPSKQSNNKYAASSYLSLTPEQWKSHRSYSCQVTHEGSTVEKTVAPTECS
notes: also called BsAb-12 CD3×ROR1
Kd (human ROR1 protein [1]): 0.354 nM
koff (human ROR1 protein [1]): 0.000207 s⁻¹
kon (human ROR1 protein [1]): 585000 M⁻¹ s⁻¹
EC50 [2]: 0.223 nM
EC50 [3]: 0.155 nM
Kd (human ROR1 protein [4]): 0.359 nM
koff (human ROR1 protein [4]): 0.000169 s⁻¹
kon (human ROR1 protein [4]): 471000 M⁻¹ s⁻¹
EC50 [5]: 1.39 nM
EC50 [6]: 0.133 nM
Kd (human ROR1 protein [7]): 0.649 nM
koff (human ROR1 protein [7]): 0.000421 s⁻¹
kon (human ROR1 protein [7]): 649000 M⁻¹ s⁻¹
EC50 of T cell activation based on reporter gene (luciferase), target cells A375 [8]: 0.0117 nM
EC50 of T cell activation based on reporter gene (luciferase), target cells Jeko-1 [8]: 0.00748 nM
EC50 of T cell activation based on reporter gene (luciferase), target cells MDA-MB-231 [8]: 0.00258 nM
Kd (human ROR1 protein [9]): 0.106 nM
koff (human ROR1 protein [9]): 8.37e-05 s⁻¹
kon (human ROR1 protein [9]): 788000 M⁻¹ s⁻¹
Kd (human ROR1 protein [10]): 0.0267 nM
koff (human ROR1 protein [10]): 2.83e-05 s⁻¹
kon (human ROR1 protein [10]): 1.06e+06 M⁻¹ s⁻¹
EC50 [11]: 1.17 nM
EC50 [12]: 0.547 nM
EC50 [13]: 0.415 nM
EC50 [14]: 0.308 nM
Kd (human ROR1 protein [15]): 0.0349 nM
koff (human ROR1 protein [15]): 5.83e-05 s⁻¹
kon (human ROR1 protein [15]): 1.67e+06 M⁻¹ s⁻¹
